These are literature values, as cited in paper PMC3522611.

In the data set the target is EGFR (Homo sapiens) (UniProt P00533).

As for HB-EGF (from UniProt Q99075), the Kd is 3.8 nM.

The Kd is the equilibrium constant for the complex coming apart.
